Reference: US20210060185

Legend:
[1] = system: T1, N-His Ana GvpC with ssrA degradation tag (engineered Anabaena flos-aquae GvpC, ClpXP-sensitive)
T1 sequence: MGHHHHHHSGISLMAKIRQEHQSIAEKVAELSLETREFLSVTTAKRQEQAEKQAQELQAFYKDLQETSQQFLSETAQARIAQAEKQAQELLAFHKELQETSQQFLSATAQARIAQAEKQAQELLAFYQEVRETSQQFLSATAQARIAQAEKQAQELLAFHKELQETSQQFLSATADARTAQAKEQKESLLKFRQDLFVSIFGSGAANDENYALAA

WT N-His-Ana-GvpC = system: T2, WT N-His-Ana-GvpC
T2 sequence: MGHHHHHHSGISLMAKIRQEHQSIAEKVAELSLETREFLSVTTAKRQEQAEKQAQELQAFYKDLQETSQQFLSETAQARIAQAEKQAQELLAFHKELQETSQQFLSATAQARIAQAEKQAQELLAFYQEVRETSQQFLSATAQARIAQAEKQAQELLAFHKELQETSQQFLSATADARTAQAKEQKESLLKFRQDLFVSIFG

[2] = system: dGvpC (Ana GvpC with SG-AANDENYALAA at the C-terminus, encoded in the acoustic sensor gene for ClpXP)

| Substance | 50% collapse pressure after ClpXP exposure (FIG. 9D) [1] | degradation on Coomassie-stained SDS-PAGE [1] | hydrostatic collapse midpoint shift (pressurized absorbance spectroscopy) [1] | increase in nonlinear CNR (FIG. 9E) [1] | nonlinear (x-AM) ultrasound contrast enhancement [1] | collapse pressure, ultrasound contrast and SDS-PAGE (WT N-His-Ana-GvpC) | nonlinear CNR with ClpXP induction (FIG. 10F) [2] | nonlinear ultrasound contrast in the mouse colon [2] |
| --- | --- | --- | --- | --- | --- | --- | --- | --- |
| ClpXP in the reconstituted cell-free TX-TL system (purified Flag-ClpXdeltaNLinkedHexamer-His6 and ClpP from the pBEST-ClpP plasmid) | a reduction of “50% collapse” pressure from about 476 kPa to about 223 kPa | Gel electrophoresis performed after incubating GVSClpXP with this cell-free extract showed significant degradation of the engineered GvpC, compared to a negative control condition in which the extract was pre-treated with a protease inhibitor | a substantial weakening of the GV shell upon ClpX exposure, with the hydrostatic collapse midpoint shifting by nearly 250 kPa | FIG. 9E shows an 860% increase in CNR | a 17 dB enhancement in the nonlinear contrast produced by GVSClpXP at an acoustic pressure of 477 kPa, in response to ClpXP activity | Control GVs containing wild type GvpC showed no sensitivity to ClpXP | – | – |
| ClpXP of E. coli Nissle 1917 (native, or ClpX and ClpP cloned from the Nissle genome under the pBAD promoter) | – | – | – | – | – | – | FIG. 10F shows a nonlinear CNR increase from 15.9 to 22.6 | Cells induced to express this enzyme showed enhanced nonlinear contrast compared to cells not expressing ClpXP |
